One data set deals with PARP2 (mouse (murine), UniProt O88554 1-559). As to the kind of experiment: photoaffinity crosslinking; 100 nM protein, 100 nM DNA, EDTA; UV photo-crosslinking, 100 nM 5'-32P photoreactive DNA, EDTA present, Pol beta carried over from probe synthesis, SDS-PAGE; binding buffer, pH and temperature not given in the material. The note with it: protein: recombinant; label: 5'-32P on strand 1; nicked duplex of 3 strands (upstream, downstream, template), blunt outer ends, 5'-dRP at nick.

The target of another data set is PARP1 (human, UniProt P09874 1-1014). The description is as above. The following applies: protein: recombinant; label: 5'-32P on strand 1; nicked duplex of 3 strands (upstream, downstream, template), blunt outer ends, 5'-dRP at nick.
A further data set deals with HMGB1 (calf (thymus), UniProt P10103 2-215). As to the kind of experiment: photoaffinity crosslinking; 300 nM protein, 100 nM DNA, EDTA; more efficient than other DNAs; UV photo-crosslinking, 100 nM 5'-32P photoreactive DNA, EDTA present, Pol beta carried over from probe synthesis, SDS-PAGE; binding buffer, pH and temperature not given in the material. The following applies: protein: native; label: 5'-32P on strand 1; nicked duplex of 3 strands, blunt outer ends, 6-nt 5' single-stranded flap (GATAAC) at nick.
Chain of HMGB1 (P10103 2-215): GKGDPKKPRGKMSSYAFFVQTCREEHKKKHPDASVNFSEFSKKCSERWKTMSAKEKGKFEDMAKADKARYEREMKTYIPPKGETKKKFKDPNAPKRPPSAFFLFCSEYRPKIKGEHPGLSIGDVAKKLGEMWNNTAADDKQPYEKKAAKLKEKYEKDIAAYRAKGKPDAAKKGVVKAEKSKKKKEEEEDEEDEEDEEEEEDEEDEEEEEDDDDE

Chain of PARP2 (O88554 whole entry): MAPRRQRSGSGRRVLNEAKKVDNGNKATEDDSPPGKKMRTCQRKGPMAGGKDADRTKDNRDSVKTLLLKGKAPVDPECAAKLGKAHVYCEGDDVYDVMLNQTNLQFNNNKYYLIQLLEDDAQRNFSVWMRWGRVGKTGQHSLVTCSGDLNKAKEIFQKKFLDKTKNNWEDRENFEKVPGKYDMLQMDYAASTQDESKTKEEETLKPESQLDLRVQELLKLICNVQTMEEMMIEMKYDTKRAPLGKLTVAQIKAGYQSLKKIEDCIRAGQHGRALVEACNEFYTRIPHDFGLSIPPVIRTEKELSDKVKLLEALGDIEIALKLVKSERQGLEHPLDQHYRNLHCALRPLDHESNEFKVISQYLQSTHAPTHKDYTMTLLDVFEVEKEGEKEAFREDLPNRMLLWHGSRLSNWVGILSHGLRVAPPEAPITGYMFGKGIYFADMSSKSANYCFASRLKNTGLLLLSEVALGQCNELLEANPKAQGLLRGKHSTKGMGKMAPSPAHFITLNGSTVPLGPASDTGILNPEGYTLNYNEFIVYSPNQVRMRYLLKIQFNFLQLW
Chain of PARP1 (P09874 whole entry): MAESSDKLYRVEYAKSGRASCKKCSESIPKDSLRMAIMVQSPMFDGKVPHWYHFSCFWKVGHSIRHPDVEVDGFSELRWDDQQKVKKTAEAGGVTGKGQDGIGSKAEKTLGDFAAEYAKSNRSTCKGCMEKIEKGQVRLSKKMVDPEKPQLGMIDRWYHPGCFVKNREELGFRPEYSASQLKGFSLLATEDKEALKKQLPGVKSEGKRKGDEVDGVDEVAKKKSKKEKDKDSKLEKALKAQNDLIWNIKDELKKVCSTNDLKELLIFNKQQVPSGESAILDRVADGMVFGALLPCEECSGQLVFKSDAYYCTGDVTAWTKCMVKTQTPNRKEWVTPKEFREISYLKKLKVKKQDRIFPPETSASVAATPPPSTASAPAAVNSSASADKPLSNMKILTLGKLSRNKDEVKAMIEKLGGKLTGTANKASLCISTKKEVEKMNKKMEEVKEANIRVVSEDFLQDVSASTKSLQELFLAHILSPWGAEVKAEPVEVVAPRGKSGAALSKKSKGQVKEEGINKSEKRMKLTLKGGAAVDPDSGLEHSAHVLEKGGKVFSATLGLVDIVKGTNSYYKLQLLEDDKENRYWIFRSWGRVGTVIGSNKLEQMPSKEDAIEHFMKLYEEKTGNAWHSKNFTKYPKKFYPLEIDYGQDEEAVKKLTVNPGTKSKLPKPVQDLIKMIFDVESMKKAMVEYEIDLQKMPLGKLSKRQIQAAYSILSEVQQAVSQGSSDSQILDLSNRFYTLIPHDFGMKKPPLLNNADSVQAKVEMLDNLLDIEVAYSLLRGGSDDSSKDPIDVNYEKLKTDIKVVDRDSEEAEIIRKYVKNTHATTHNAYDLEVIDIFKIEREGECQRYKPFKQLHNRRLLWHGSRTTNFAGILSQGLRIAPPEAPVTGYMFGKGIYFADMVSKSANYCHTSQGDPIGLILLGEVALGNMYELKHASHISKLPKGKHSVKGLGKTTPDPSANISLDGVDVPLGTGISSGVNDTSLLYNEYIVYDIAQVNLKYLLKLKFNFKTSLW

B1: Pho-dRP (dsDNA)
DNA 1: GGCGACTAAGCCGGGC
DNA 2: AACGCCAGGGCCTCCC
DNA 3: GGGAGGCCCTGGCGTTGCCCGGCTTAGTCGCC
modifications: strand 1 3'-terminal C is FAP-dCMP (photoreactive exo-N-substituted dC); strand 2 carries 5'-dRP (phosphate-linked, from Ung-treated 5'-pU)
Consider B1, for which the binding result with PARP2 and in the data set with PARP1 was “binds” throughout.

B2: Pho-Flap (dsDNA)
DNA 1: GGCGACTAAGCCGGGC
DNA 2: GATAACAACGCCAGGGCCTCCC
DNA 3: B1 DNA 3
modifications: strand 1 3'-terminal C is FAP-dCMP
For B2, in the data set with HMGB1, the binding result is given as “binds”.

These data come from paper PMC6535076, “Poly(ADP-ribosyl)ation and DNA repair synthesis in the extracts of naked mole rat, mouse, and human cells”.
